Assay [1] concerns the target AtCGE1 (Arabidopsis chloroplast GrpE homologue 1), mature region, 6xHis-tagged (Arabidopsis). The assay can be described thus: cross-linking; 5 uM purified protein in common buffer [25 mM Hepes-KOH (pH 7.8), 5 mM MgCl2, 5 mM DTT] crosslinked with glutaraldehyde at 0.05, 0.1 and 0.2% for 10 min; 4-12% SDS-PAGE and CBR staining.
The target in assay [2] is AtCGE2 (Arabidopsis chloroplast GrpE homologue 2), mature region, 6xHis-tagged (Arabidopsis). The description is as above.
Assay [3] has as its target AtCGE1 (Arabidopsis chloroplast GrpE homologue 1), mature region, 6xHis-tagged (Arabidopsis). The assay can be described thus: pull-down; AtCGE1-6xHis and tag-free AtCGE2 co-expressed in E. coli BL21(DE3); crude protein extract bound to Talon beads, stringent wash, elution; bands seen on PAGE.

Where “and” joins values, the source holds several entries; their conditions need not be identical. Identical values can stand only once.

Sequence of AtCGE1 (Arabidopsis chloroplast GrpE homologue 1), mature region, 6xHis-tagged (Arabidopsis) (main, as listed by the source): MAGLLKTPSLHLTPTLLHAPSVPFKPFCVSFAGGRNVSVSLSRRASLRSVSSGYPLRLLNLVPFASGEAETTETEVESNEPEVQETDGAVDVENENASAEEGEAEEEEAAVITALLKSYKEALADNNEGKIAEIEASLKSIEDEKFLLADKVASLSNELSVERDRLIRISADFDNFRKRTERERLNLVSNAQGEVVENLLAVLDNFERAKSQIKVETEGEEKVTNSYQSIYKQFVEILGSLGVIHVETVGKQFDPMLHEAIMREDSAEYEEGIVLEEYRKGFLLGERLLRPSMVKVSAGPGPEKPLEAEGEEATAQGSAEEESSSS

As a reminder, the stoichiometry N is the number of molecules, sites or subunits per partner or assembly. As to “AtCGE1 (Arabidopsis chloroplast GrpE homologue 1), mature region, 6xHis-tagged (natural protein)”, in assay [1], the stoichiometry N is 2 and 4.

As for “AtCGE2 (Arabidopsis chloroplast GrpE homologue 2), mature region, 6xHis-tagged (natural protein)”, the stoichiometry N in assay [2] was 2 and 4.

Substance “AtCGE2 (Arabidopsis chloroplast GrpE homologue 2), mature region, tag-free, co-expressed with AtCGE1-6xHis (natural protein)” returned a stoichiometry N in assay [3] of 1 molar ratio.

These data come from article PMC6987454.
